Results from publication PMC9482650, “Quantitative fragmentomics allow affinity mapping of interactomes” (Nature Communications, 2022).

Experiments:
Test in all cases: holdup assay
Set-up in all cases: key: below the threshold = too weak to quantify, mostly under pKd 3.1 to 4
[1] = target: T1, APBA1_2, Q02410
T1 sequence (Q02410 742-832, limits assumed, looked up): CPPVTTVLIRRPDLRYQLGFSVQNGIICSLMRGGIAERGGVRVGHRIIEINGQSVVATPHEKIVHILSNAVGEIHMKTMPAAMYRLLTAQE

[2] = target: T2, DFNB31_3, Q9P202
T2 sequence (Q9P202 811-907, limits assumed, looked up): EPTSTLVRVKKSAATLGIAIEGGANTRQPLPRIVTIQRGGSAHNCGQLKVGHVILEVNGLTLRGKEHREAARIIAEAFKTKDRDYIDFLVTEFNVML

[3] = target: DLG2_3, Q15700
[4] = target: T3, FRMPD1, Q5SYB0
T3 sequence (Q5SYB0 52-145, limits assumed, looked up): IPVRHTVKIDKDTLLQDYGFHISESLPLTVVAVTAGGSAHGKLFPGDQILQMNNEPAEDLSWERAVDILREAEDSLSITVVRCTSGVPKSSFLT

[5] = target: FRMPD2_1, Q68DX3
[6] = target: FRMPD3, Q5JV73
[7] = target: FRMPD4, Q14CM0
[8] = target: T4, GRIP1_4, Q9Y3R0
T4 sequence (Q9Y3R0 467-571, limits assumed, looked up): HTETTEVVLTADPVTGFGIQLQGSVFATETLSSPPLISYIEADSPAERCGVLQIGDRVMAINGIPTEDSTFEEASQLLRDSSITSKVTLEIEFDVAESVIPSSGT

[9] = target: T5, GRIP1_5, Q9Y3R0
T5 sequence (Q9Y3R0 568-668, limits assumed, looked up): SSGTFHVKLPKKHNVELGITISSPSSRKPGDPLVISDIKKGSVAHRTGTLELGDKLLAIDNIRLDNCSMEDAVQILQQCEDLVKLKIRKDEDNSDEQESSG

[10] = target: Inadl_1, Q8NI35
[11] = target: Inadl_10, Q8NI35
[12] = target: Inadl_4, Q8NI35
[13] = target: Inadl_6, Q8NI35
[14] = target: LNX1_3, Q8TBB1
[15] = target: T6, LNX2_2, Q8N448
T6 sequence (Q8N448 334-432, limits assumed, looked up): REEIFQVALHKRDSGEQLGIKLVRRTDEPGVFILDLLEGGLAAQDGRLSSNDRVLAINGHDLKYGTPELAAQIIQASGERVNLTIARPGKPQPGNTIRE

[16] = target: MAGI2_3, Q86UL8
[17] = target: MAGI3_2, Q5TCQ9
[18] = target: T7, MPDZ_5, O75970
T7 sequence (O75970 695-796, limits assumed, looked up): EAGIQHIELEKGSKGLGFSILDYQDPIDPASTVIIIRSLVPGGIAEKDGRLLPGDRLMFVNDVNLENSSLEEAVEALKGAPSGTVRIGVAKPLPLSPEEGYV

[19] = target: NHERF4_2, Q86UT5
[20] = target: NOS1, P29475
[21] = target: T8, PARD3B_1, Q8TEW8
T8 sequence (Q8TEW8 196-299, limits assumed, looked up): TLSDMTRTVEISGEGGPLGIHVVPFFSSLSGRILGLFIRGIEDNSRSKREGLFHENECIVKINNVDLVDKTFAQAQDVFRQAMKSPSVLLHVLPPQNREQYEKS

[22] = target: PDLIM1, O00151
[23] = target: T9, PDZD7_3, Q9H5P4
T9 sequence (Q9H5P4 857-944, limits assumed, looked up): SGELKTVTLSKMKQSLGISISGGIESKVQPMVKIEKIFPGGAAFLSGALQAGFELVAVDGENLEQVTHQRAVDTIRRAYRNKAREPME

[24] = target: PDZRN4_1, Q6ZMN7
[25] = target: PTPN3, P26045
[26] = target: T10, SHANK1, Q9Y566
T10 sequence (Q9Y566 658-767, limits assumed, looked up): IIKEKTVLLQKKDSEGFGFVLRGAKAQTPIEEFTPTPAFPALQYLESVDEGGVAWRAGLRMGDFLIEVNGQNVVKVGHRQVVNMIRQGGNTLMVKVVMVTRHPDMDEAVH

[27] = target: T11, SIPA1L2, Q9P2F8
T11 sequence (Q9P2F8 945-1036, limits assumed, looked up): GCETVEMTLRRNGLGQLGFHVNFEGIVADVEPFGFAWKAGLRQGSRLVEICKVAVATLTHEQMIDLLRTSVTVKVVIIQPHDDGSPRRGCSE

[28] = plain residues with an end cap or a label only (N-terminal biotin on a linker: ttds)
[29] = plain residues with an end cap or a label only (N-terminal biotin on a linker: ado-ado)
[30] = plain residues with an end cap or a label only (N-terminal biotin on a linker: ahx)

Sequence of NOS1, P29475 (P29475 9-101): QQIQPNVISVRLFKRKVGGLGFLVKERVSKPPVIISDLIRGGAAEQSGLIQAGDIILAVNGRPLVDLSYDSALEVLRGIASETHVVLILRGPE
Sequence of NHERF4_2, Q86UT5 (Q86UT5 220-308): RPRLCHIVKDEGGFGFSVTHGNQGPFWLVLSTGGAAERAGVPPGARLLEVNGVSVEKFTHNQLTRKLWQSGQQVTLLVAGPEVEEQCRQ
Sequence of PTPN3, P26045 (P26045 505-587): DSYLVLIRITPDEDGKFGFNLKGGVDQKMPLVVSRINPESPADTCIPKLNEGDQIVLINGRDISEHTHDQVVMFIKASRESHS
Sequence of MAGI3_2, Q5TCQ9 (Q5TCQ9 398-503): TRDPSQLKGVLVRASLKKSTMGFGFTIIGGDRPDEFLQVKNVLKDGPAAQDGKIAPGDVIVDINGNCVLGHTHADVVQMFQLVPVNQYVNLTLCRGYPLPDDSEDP
Sequence of FRMPD3, Q5JV73 (Q5JV73 12-100): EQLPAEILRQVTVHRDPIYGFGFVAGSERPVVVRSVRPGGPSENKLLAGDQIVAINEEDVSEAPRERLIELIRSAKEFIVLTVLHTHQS
Sequence of Inadl_6, Q8NI35 (Q8NI35 1058-1167): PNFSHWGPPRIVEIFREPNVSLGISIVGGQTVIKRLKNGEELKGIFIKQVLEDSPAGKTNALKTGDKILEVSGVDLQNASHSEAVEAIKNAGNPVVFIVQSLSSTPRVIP
Sequence of FRMPD4, Q14CM0 (Q14CM0 67-160): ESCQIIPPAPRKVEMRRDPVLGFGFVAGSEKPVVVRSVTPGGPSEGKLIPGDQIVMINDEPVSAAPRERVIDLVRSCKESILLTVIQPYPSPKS
Sequence of Inadl_4, Q8NI35 (Q8NI35 547-651): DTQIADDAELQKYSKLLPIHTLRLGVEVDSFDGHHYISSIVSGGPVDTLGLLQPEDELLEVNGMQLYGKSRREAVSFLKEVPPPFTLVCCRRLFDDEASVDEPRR
Sequence of PDZRN4_1, Q6ZMN7 (Q6ZMN7 213-318): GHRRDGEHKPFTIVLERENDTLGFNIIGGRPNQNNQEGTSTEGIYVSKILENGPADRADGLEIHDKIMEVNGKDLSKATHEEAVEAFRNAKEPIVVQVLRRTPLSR
Sequence of FRMPD2_1, Q68DX3 (Q68DX3 770-861): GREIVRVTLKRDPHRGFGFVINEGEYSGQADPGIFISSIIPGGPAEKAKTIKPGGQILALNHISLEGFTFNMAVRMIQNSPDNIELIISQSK
Sequence of MAGI2_3, Q86UL8 (Q86UL8 600-682): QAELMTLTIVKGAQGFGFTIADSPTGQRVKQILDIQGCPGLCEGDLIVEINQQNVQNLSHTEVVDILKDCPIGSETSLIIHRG
Sequence of LNX1_3, Q8TBB1 (Q8TBB1 500-596): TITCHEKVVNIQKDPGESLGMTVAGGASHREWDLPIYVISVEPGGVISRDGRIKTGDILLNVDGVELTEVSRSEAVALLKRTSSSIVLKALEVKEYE
Sequence of Inadl_10, Q8NI35 (Q8NI35 1673-1763): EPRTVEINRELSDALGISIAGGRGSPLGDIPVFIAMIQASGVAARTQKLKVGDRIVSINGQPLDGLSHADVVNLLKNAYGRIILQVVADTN
Sequence of Inadl_1, Q8NI35 (Q8NI35 113-229): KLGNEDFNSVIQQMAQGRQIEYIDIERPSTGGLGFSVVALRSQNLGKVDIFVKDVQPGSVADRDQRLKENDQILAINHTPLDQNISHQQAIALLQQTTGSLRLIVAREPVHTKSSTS
Sequence of PDLIM1, O00151 (O00151 1-87): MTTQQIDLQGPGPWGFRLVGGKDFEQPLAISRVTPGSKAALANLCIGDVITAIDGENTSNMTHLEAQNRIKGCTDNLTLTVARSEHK

Q: What does the source list for MERLRVETDV [ARHGEF16, Q5VV41]?
A: pKd [1, 28]: 3.86; pKd [2, 28]: below the threshold; pKd [3, 28]: 4.11; pKd [4, 28]: below the threshold; pKd [5, 28]: 3.79; pKd [6, 28]: below the threshold; pKd [7, 28]: below the threshold; pKd [8, 28]: below the threshold; pKd [9, 28]: below the threshold; pKd [10, 28]: below the threshold; pKd [11, 28]: below the threshold; pKd [12, 28]: below the threshold; pKd [13, 28]: below the threshold; pKd [14, 28]: below the threshold; pKd [15, 28]: 3.93; pKd [16, 28]: 3.53; pKd [17, 28]: 4.6; pKd [18, 28]: 3.6; pKd [19, 28]: below the threshold; pKd [20, 28]: below the threshold; pKd [21, 28]: below the threshold; pKd [22, 28]: 4; pKd [23, 28]: 4.08; pKd [24, 28]: 3.83; pKd [25, 28]: 4.38; pKd [26, 28]: below the threshold; pKd [27, 28]: below the threshold

Q: How did the pKd [1, 28] turn out when SEKHFRETEV [HTLV1-TAX1, P03409] was run?
A: 3.56

Q: What about the pKd [2, 28] of the same binder?
A: below the threshold

Q: And the pKd [3, 28]?
A: 5.36

Q: What about the pKd [4, 28] of the same binder?
A: below the threshold

Q: What about the pKd [5, 28] of the same binder?
A: 3.75

Q: What about the pKd [6, 28] of the same binder?
A: below the threshold

Q: What about the pKd [7, 28] of the same binder?
A: below the threshold

Q: And the pKd [8, 28]?
A: below the threshold

Q: What about the pKd [9, 28] of the same binder?
A: below the threshold

Q: And the pKd [10, 28]?
A: below the threshold

Q: And the pKd [11, 28]?
A: below the threshold

Q: What about the pKd [12, 28] of the same binder?
A: below the threshold

Q: What about the pKd [13, 28] of the same binder?
A: 3.69

Q: What about the pKd [14, 28] of the same binder?
A: 3.64

Q: And the pKd [15, 28]?
A: 4.15

Q: What about the pKd [16, 28] of the same binder?
A: 4.3

Q: What about the pKd [17, 28] of the same binder?
A: 4.99

Q: What about the pKd [18, 28] of the same binder?
A: below the threshold

Q: What about the pKd [19, 28] of the same binder?
A: below the threshold

Q: What about the pKd [20, 28] of the same binder?
A: 4.09

Q: And the pKd [21, 28]?
A: below the threshold

Q: And the pKd [22, 28]?
A: 3.69

Q: And the pKd [23, 28]?
A: 4.82

Q: What about the pKd [24, 28] of the same binder?
A: 4.9

Q: What about the pKd [25, 28] of the same binder?
A: 5.26

Q: What about the pKd [26, 28] of the same binder?
A: below the threshold

Q: What about the pKd [27, 28] of the same binder?
A: below the threshold

Q: How did the pKd [1, 29] turn out when SVVSERISSV [HTR2C, P28335] was run?
A: 3.87

Q: What about the pKd [2, 29] of the same binder?
A: 3.76

Q: And the pKd [3, 29]?
A: 3.89

Q: And the pKd [4, 29]?
A: below the threshold

Q: What about the pKd [5, 29] of the same binder?
A: below the threshold

Q: What about the pKd [6, 29] of the same binder?
A: below the threshold

Q: What about the pKd [7, 29] of the same binder?
A: below the threshold

Q: What about the pKd [8, 29] of the same binder?
A: below the threshold

Q: What about the pKd [9, 29] of the same binder?
A: below the threshold

Q: And the pKd [10, 29]?
A: below the threshold

Q: And the pKd [11, 29]?
A: below the threshold

Q: What about the pKd [12, 29] of the same binder?
A: below the threshold

Q: And the pKd [13, 29]?
A: below the threshold

Q: And the pKd [14, 29]?
A: below the threshold

Q: What about the pKd [15, 29] of the same binder?
A: 3.96

Q: And the pKd [16, 29]?
A: 4.3

Q: What about the pKd [17, 29] of the same binder?
A: 4.46

Q: What about the pKd [18, 29] of the same binder?
A: below the threshold

Q: What about the pKd [19, 29] of the same binder?
A: below the threshold

Q: And the pKd [20, 29]?
A: 3.58

Q: What about the pKd [21, 29] of the same binder?
A: below the threshold

Q: And the pKd [22, 29]?
A: below the threshold

Q: What about the pKd [23, 29] of the same binder?
A: 4.26

Q: What about the pKd [24, 29] of the same binder?
A: below the threshold

Q: And the pKd [25, 29]?
A: 4.8

Q: And the pKd [26, 29]?
A: below the threshold

Q: What about the pKd [27, 29] of the same binder?
A: below the threshold

Q: Which results are given for HIVEALETDV [PBK, Q96KB5]?
A: pKd [1, 28]: 4.27; pKd [2, 28]: below the threshold; pKd [3, 28]: 3.7; pKd [4, 28]: below the threshold; pKd [5, 28]: below the threshold; pKd [6, 28]: below the threshold; pKd [7, 28]: below the threshold; pKd [8, 28]: below the threshold; pKd [9, 28]: below the threshold; pKd [10, 28]: below the threshold; pKd [11, 28]: below the threshold; pKd [12, 28]: below the threshold; pKd [13, 28]: 3.78; pKd [14, 28]: below the threshold; pKd [15, 28]: 3.92; pKd [16, 28]: 3.93; pKd [17, 28]: 4.29; pKd [18, 28]: below the threshold; pKd [19, 28]: below the threshold; pKd [20, 28]: below the threshold; pKd [21, 28]: below the threshold; pKd [22, 28]: 3.91; pKd [23, 28]: 4.6; pKd [24, 28]: below the threshold; pKd [25, 28]: 5.11; pKd [26, 28]: below the threshold; pKd [27, 28]: below the threshold

Q: EKLSSIESDV [GRIN2B, Q13224] was tested. Which pKd [1, 30] did it give?
A: below the threshold

Q: What about the pKd [2, 30] of the same binder?
A: below the threshold

Q: What about the pKd [3, 30] of the same binder?
A: 4.56

Q: And the pKd [4, 30]?
A: below the threshold

Q: What about the pKd [5, 30] of the same binder?
A: below the threshold

Q: And the pKd [6, 30]?
A: below the threshold

Q: What about the pKd [7, 30] of the same binder?
A: below the threshold

Q: What about the pKd [8, 30] of the same binder?
A: below the threshold

Q: And the pKd [9, 30]?
A: below the threshold

Q: What about the pKd [10, 30] of the same binder?
A: below the threshold

Q: What about the pKd [11, 30] of the same binder?
A: below the threshold

Q: What about the pKd [12, 30] of the same binder?
A: below the threshold

Q: What about the pKd [13, 30] of the same binder?
A: below the threshold

Q: What about the pKd [14, 30] of the same binder?
A: below the threshold

Q: What about the pKd [15, 30] of the same binder?
A: below the threshold

Q: And the pKd [16, 30]?
A: below the threshold

Q: What about the pKd [17, 30] of the same binder?
A: 3.54

Q: What about the pKd [18, 30] of the same binder?
A: below the threshold

Q: What about the pKd [19, 30] of the same binder?
A: below the threshold

Q: And the pKd [20, 30]?
A: below the threshold

Q: And the pKd [21, 30]?
A: below the threshold

Q: And the pKd [22, 30]?
A: 3.71

Q: And the pKd [23, 30]?
A: 3.77

Q: And the pKd [24, 30]?
A: below the threshold

Q: What about the pKd [25, 30] of the same binder?
A: 4.35

Q: What about the pKd [26, 30] of the same binder?
A: below the threshold

Q: And the pKd [27, 30]?
A: below the threshold
